In paper PMC2211892 one finds fold level of C1-INH on erythrocyte surfaces against StcE′-His data, which are given here for 1 molecule.

The target of the assay is StcE′ E435D-His (Escherichia coli O157:H7) (UniProt O82882). The assay can be described thus: flow cytometry on cells.

B1: C1 esterase inhibitor (C1-INH), purified (natural protein)
chain: NPNATSSSSQDPESLQDRGEGKVATTVISKMLFVEPILEVSSLPTTNSTTNSATKITANTTDEPTTQPTTEPTTQPTIQPTQPTTQLPTDSPTQPTTGSFCPGPVTLCSDLESHSTEAVLGDALVDFSLKLYHAFSAMKKVETNMAFSPFSIASLLTQVLLGAGENTKTNLESILSYPKDFTCVHQALKGFTTKGVTSVSQIFHSPDLAIRDTFVNASRTLYSSSPRVLSNNSDANLELINTWVAKNTNNKISRLLDSLPSDTRLVLLNAIYLSAKWKTTFDPKKTRMEPFHFKNSVIKVPMMNSKKYPVAHFIDQTLKAKVGQLQLSHNLSLVILVPQNLKHRLEDMEQALSPSVFKAIMEKLEMSKFQPTLLTLPRIKVTTSQDMLSIMEKLEFFDFSYDLNLCGLTEDPDLQVSAMQHQTVLELTETGVEAAAASAISVARTLLVFEVQQPFLFVLWDQQHKFPVFMGRVYDPRA
Molecule B1 showed a fold level of C1-INH on erythrocyte surfaces against StcE′-His of 22 fold.
